Patent US8580267B2, “Immunocytokines for tumour therapy with chemotherapeutic agents” (Philogen S.p.A., priority 2008, dated 2013)
Positions count from the first letter of the chain named.

Assays:
[1] = body weight of mice in the subcutaneous glioblastoma therapy study; assay type: in vivo, BALB/c nude mice
Description: (§2) One group was injected i.v. (lateral tail vein) with 20 μg of F16-IL2 (corresponding to 6.6 μg of IL2) in a total volume of 100 μl PBS solution (Phosphate Buffer Saline), one was injected i.p. with 0.525 mg of temozolomide (corresponding to 75 mg/m^2) in a total volume of 150 μl saline 10% DMSO solution, a third group received both the i.v. injection of 20 μg F16-IL2 and the i.p. of 0.525 mg temozolomide, finally, the control group was injected i.p. with 150 μl of saline 10% DMSO.
(§3) A schedule of five total administrations was established: on days 12, 15, 18, 21, 24 from the tumour cell injection into mice (day 0).
(§4) Mice were monitored daily and tumours were measured with a digital caliper three times per week. Tumour volume was estimated using the formula: volume=length×width^2/2. Animals were sacrificed when tumours approached a volume of 3,000 mm^3 or when tumours turned necrotic and bleeding, according to the Swiss regulations and under a project license granted by the Veterinäramt des Kantons Zürich (198/2005).

[2] = system: subcutaneous U87 glioblastoma; experiment: therapy study in subcutaneous glioma mouse model; settings: for effect on tumour growth: five administrations days 12-24, F16-IL2 20 μg i.v., temozolomide 0.525 mg i.p., temozolomide result by day 30
Description: Subcutaneous glioblastoma bearing mice were obtained by a s.c. flank injection of 5×10^6 U87 cells in 8-week old female BALB/c nude mice [66]. Twelve days after tumour cell implantation, when tumours had reached a size of 250-300 mm^3, mice were staged to maximize uniformity among the groups (n=5).
as §2, §3, §4
Tumour volumes are shown as average ±SD or SE. Kaplan-Meier survival curves were performed to display therapeutic efficacy in the subcutaneous glioma model.

subcutaneous U87 tumours = experiment: quantitative biodistribution analysis in mice bearing subcutaneous U87 tumours; assay type: in vivo, BALB/c nude mice; settings: radioiodinated F16-IL2 i.v., 24 h after injection
Description: (§1) The in vivo targeting performance of F16-IL2 was evaluated by quantitative biodistribution analysis. […] Antibody immunoreactivity after labelling was evaluated by loading a sample of radiolabelled F16-IL2 onto TNC-A1-Sepharose resin, followed by radioactive counting of the flow-through and of the eluate fractions. Immunoreactivity, defined as the ratio between the counts of the eluted protein and the sum of the counts of the eluted and flow-through fractions, was 84%. Mice were sacrificed 24 hours after injection of F16-IL2 (10 μg, 3.6 μCi per mouse). Organs were weighed and radioactivity was counted with a Packard Cobra gamma counter. Radioactivity content of representative organs was expressed as the percentage of the injected dose per gram of tissue (% ID/g).

s.c. U87 tumours = experiment: immunofluorescence assessment of tumour-infiltrating cells and microvascular density in subcutaneous glioma xenografts; assay type: in vivo, Balb/c nude mice; settings: anti-human IL2 staining, after three injections
Description: To evaluate the role of inflammatory cell responses in vivo, female Balb/c nude mice bearing s.c. U87 tumours (3 mice per group) were treated on days 12, 15 and 18 after tumour cell implantation with either saline 10% DMSO (i.p.), F16-IL2 (i.v.), temozolomide (i.p.), and F16-IL2 (i.v.) plus temozolomide (i.p.). Mice were sacrificed 24 hours after the third injection, and tumours were excised and snap-frozen in OCT. […]
Sections of 10 μm thickness were treated with ice-cold acetone, rehydrated in PBS and blocked with PBS 10% donkey serum+10% goat serum. […] Bound antibody was detected with fluorescent Alexa488- or Alexa594-coupled secondary antibodies (donkey anti-rat or goat anti-rabbit, BD Biosciences Pharmingen) and DAPI in a PBS 12% BSA solution.
In each tumour section, the staining given by the primary antibodies was quantified in three representative 10× microscopic images using the ImageJ software (http://rsb.info.nih.gov/ij/).

TNC-A1 = biological target: T1, TNC-A1 (Homo sapiens, UniProt P24821); experiment: immunoreactivity after radiolabelling on TNC-A1-Sepharose resin; assay type: binding; settings: radiolabelled F16-IL2 on TNC-A1-Sepharose resin
T1 construct: loading a sample of radiolabelled F16-IL2 onto TNC-A1-Sepharose resin
T1 sequence (P24821 1076-1165 limits assumed): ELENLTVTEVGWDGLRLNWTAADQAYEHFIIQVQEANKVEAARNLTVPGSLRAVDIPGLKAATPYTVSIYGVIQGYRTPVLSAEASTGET
Description: as §1

[3] = biological target: T2, extra-domain A1 of tenascin C (Homo sapiens, UniProt P24821); experiment: real-time interaction analysis on a BIAcore 3000 instrument; assay type: binding; settings: after affinity maturation
T2 construct: F16 is a human monoclonal antibody specific to the extra-domain A1 of tenascin C [25]
T2 sequence (P24821 1076-1165 limits assumed): T1 sequence (P24821 1076-1165 limits assumed)

A1 domain of tenascin-C = biological target: T3, A1 domain of tenascin-C (Homo sapiens, UniProt P24821); experiment: immunohistochemistry on human glioblastoma specimens and U87 xenografts with F16; settings: biotinylated SIP format, 2 μg/ml; patterns and intensities comparable to L19
T3 construct: from tissue; host or cells: human glioblastoma surgical specimens; U87 glioblastoma xenografts grown s.c. in nude mice
Description: Freshly frozen human glioblastoma tissues were received from the Neurosurgery department of Basel University Hospital, Basel, Switzerland, and were stored at −80° C.
For immunohistochemical procedures, the F16 antibody was used in biotinylated small immunoprotein (SIP) format. F16 is a human monoclonal antibody specific to the extra-domain A1 of tenascin C [25]. […] The SIP antibody format consists of a covalent homodimer in which each monomeric unit comprises a scFv fused to a human CH4 domain of the secretory isoform S2 of human IgE (as exemplified for antibody L19 in ref. [65]). This domain promotes the formation of homodimers that are further stabilized by disulfide bonds between the C-terminal cysteine residues, resulting in a 75 kDa homobivalent miniantibody. This SIP antibody was further biotinylated in order to avoid background staining given by the human endogenous IgE.
Sections of 10 μm thickness were treated with ice-cold acetone, rehydrated in TBS (50 mM Tris, 100 mM NaCl, 0.001% Aprotinin, pH 7.4) and blocked with TBS 20% fetal calf serum. Biot-(SIP) F16 antibody was added onto the sections in a final concentration of 2 μg/ml. Bound antibody was detected with streptavidin-alkaline phosphatase complex (Biospa). Fast Red (Tablets Set, Sigma) was used as phosphatase substrate and sections were counterstained with Gill's hematoxylin no. 2 (Sigma). […]

tenascin-C = tenascin-C (Homo sapiens, UniProt P24821); experiment: binding of F16 with Ala to Met mutation in VH CDR1; settings: Ala to Met in position 4 of VH CDR1
Chain of tenascin-C (P24821 23-2201): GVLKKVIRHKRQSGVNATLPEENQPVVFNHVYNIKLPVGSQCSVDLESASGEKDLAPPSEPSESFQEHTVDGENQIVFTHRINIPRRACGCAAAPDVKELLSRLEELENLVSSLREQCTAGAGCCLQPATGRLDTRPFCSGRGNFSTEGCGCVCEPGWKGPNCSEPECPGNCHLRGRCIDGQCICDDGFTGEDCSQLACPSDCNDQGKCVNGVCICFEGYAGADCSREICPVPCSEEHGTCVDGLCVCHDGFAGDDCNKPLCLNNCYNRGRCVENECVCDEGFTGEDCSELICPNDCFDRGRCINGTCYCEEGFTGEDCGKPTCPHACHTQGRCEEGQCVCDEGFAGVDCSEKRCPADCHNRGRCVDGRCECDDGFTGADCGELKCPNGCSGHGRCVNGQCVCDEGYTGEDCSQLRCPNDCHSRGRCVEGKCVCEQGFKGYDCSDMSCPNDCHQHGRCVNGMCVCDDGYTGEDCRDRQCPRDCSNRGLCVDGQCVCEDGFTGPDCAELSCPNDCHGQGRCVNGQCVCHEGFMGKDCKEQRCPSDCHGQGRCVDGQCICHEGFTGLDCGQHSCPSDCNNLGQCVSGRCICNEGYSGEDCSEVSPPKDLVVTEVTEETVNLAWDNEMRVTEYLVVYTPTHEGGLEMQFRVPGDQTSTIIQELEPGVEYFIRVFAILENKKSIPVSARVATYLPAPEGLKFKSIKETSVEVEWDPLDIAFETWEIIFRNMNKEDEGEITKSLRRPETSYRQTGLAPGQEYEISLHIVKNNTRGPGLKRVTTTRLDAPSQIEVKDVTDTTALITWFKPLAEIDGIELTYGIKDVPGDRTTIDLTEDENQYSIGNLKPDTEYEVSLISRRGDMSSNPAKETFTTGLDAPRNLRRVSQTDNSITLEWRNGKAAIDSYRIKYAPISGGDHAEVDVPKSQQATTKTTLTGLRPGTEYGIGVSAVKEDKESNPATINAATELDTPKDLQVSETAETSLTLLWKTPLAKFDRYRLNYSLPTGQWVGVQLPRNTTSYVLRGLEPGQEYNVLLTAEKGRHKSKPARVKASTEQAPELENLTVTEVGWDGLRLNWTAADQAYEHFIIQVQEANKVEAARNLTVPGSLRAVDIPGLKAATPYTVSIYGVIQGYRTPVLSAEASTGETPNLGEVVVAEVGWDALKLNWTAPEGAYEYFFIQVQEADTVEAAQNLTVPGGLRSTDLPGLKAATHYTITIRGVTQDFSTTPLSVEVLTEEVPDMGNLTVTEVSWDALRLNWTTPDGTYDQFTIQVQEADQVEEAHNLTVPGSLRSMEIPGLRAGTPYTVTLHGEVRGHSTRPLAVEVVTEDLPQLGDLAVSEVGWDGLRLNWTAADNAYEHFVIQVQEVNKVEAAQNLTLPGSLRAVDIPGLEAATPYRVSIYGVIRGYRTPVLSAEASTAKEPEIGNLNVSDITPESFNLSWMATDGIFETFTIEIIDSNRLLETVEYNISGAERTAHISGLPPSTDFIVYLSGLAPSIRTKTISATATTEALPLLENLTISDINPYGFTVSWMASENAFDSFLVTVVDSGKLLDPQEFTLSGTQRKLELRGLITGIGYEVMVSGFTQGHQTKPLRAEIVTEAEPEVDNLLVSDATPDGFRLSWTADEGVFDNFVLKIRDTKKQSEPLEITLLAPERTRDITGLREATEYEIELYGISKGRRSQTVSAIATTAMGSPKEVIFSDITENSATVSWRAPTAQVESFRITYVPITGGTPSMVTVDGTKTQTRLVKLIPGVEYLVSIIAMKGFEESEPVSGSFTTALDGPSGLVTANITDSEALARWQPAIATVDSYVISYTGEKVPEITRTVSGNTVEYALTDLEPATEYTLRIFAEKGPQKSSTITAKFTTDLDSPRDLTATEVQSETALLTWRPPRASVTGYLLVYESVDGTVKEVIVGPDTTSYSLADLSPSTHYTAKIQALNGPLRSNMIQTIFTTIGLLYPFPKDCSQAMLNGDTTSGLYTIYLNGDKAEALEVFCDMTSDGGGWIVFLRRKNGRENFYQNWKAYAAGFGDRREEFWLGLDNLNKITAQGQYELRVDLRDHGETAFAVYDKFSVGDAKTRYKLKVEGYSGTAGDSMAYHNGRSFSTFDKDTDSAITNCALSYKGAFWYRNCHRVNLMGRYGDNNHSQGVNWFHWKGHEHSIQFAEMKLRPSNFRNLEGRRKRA

T3 sequence (P24821 23-2201): as above

In the case of `Cn1nnc2c(C(N)=O)ncn2c1=O` [temozolomide, 8-carbamoyl-3-methylimidazo[5,1-d]-1,2,3,5-tetrazin-4(3H)-one], the “transient weight loss, nadir” value ([1]; after the fifth injection) is reported as 10%, the “mice in which tumours started growing again” value ([2]; by day 45) is reported as 3/5 and the “effect on tumour growth” value [2] is reported as “virtually complete tumour regression”. The “mice surviving over 3 months from the tumour cell injection” value ([2]; n=5 per group, combination group alive and tumour-free) was “two mice” and the “day before which the other animals were sacrificed” value ([2]; tumour had reached the cut-off size) was less than 106 days.

In the case of “F16-IL2: clinical-stage immunocytokine consisting of human IL-2 fused to the human antibody F16, specific to the A1 domain of tenascin-C”, the “weight loss” value ([1]; F16-IL2 20 μg i.v., five administrations) is reported as “no weight loss”, the “accumulation in the tumour” value (subcutaneous U87 tumours) is reported as 2.3 % ID/g and the tumour-to-blood ratio (subcutaneous U87 tumours) is reported as 11.5. For the same molecule, the “sacrifice of the last mouse, day from tumour cell inoculation” value ([2]; Kaplan-Meier survival, cut-off tumour size 3,000 mm^3) was 47 days, the “effect on tumour growth” value [2] was “minor tumour growth retardation” and the “localization of the immunocytokine within the tumour” value (s.c. U87 tumours) was “perivascular region and in the tumour extracellular matrix”. The “immunoreactivity (eluted counts / eluted + flow-through counts)” value (TNC-A1) was 84%.

B1: F16: human monoclonal antibody specific to the extra-domain A1 of tenascin C; used in biotinylated SIP format for immunohistochemistry (antibody, V domains shown)
VH: EVQLLESGGGLVQPGGSLRLSCAASGFTFSRYGASWVRQAPGKGLEWVSAISGSGGSTYYADSVKGRFTISRDNSKNTLYLQMNSLRAEDTAVYYCAKAHNAFDYWGQGTLVTVSR
VL: SSELTQDPAVSVALGQTVRITCQGDSLRSYYASWYQQKPGQAPVLVIYGKNNRPSGIPDRFSGSSSGNTASLTITGAQAEDEADYYCNSSVYTMPPVVFGGGTKLTVL
For B1, the dissociation constant [3] was “low nanomolar range” and the “staining of tumour sections” value (A1 domain of tenascin-C) was “strongly stain both experimental U87 tumours and glioblastomas from patients”.

B2: improved variant of F16: 4A1-F16 having the Ala to Met mutation in VH CDR1, giving VH CDR1 SEQ ID NO: 18 (antibody, V domains shown)
VH: B1 VH with A34M
VL: B1 VL
With B2 the “binding affinity to tenascin-C” value (tenascin-C) was “retaining high affinity binding to tenascin-C”.
